Assay results reported in patent US11123408B2, “Compositions and methods for treating nonsteroidal anti-inflammatory drug (NSAID) associated coagulopathy, thrombocytopenia, glanzmann's thrombasthenia, and/or thrombosis” (YALE UNIVERSITY, priority 2011, dated 2021).
“Also recorded” adds a separate entry of the source.

Test system: platelets in platelet rich plasma
Experiment: Lumi aggregometry (extracellular ATP, dense granule release) simultaneously with LTA
Assay type: cell-based, human
Procedure: Whole blood from healthy voluntary donors was collected in accordance with an IRB-approved protocol into blue top vacutainer tubes containing 3.2% sodium citrate. Blood was centrifuged at 1000 RPM for 10 minutes at room temperature to collect platelet rich plasma (PRP). PRP in the supernatant was then transferred to fresh tubes, and the remainder of the specimen was centrifuged at 4000 RPM for 10 minutes to obtain platelet poor plasma (PPP). PRP was adjusted to a final platelet count of 250×10^6 platelets/mL with autologous PPP for use in aggregation studies. Potential donors were excluded if there was a history of a bleeding disorder or current anticoagulant use and donors were instructed to avoid NSAIDs for at least 7 days prior to donation. Approval for the human subjects involved in this research was sought and granted by the Committee for the Protection of Human Subjects, Dartmouth-Hitchcock Medical Center, where these studies were conducted in accordance with the Declaration of Helsinki.
Light transmission (i.e., optical) and lumi aggregometry were performed on up to four samples from the same individual simultaneously with a Chrono-Log Model 700 Whole Blood/Optical Lumi Aggregometer (Chrono-Log Corporation, Havertown, Pa.) using procedures provided by the manufacturer that are briefly summarized here.
Platelet aggregation was determined by measuring the change in light transmittance of stirred PRP over time after addition of various agonists. Prior to each experiment the aggregometer was standardized to reflect 100% and 0% light transmittance with PPP and PRP, respectively, from the donor whose platelets were used in each specific experiment. 500 μL PRP was added to cuvettes containing a magnetic stir bar and allowed to pre-warm to 37° C. in the aggregometer wells for 3 minutes prior to initiating aggregation reactions which were then conducted at 37° C. Aggregation reactions were initiated by direct addition of agonists and/or enzymes to warmed, stirred PRP, and were monitored for an increase in light transmittance for 10 minutes. The increase in light transmittance is directly proportional to the amount of aggregation and is amplified and digitized into a computer (HP Compaq, Hewlett-Packard, Palo Alto, Calif.) with the AGGRO/LINK8 for Windows software (Chrono-Log Corporation, Havertown, Pa.) to generate aggregation curves. […] The platelet aggregometry experiments for all concentrations of MRS 2395 (including the 0 μM point) were conducted with the plasma adjusted to a final concentration of 10% DMSO to solubilize the inhibitor.
In a subgroup of experiments, lumi aggregometry was used to assay the levels of extracellular ATP simultaneously with LTA. Lumi aggregometry measures ATP in the extracellular space over time using a sensitive luminescent assay employing firefly luciferin-luciferase (CHRONO-LUME™ reagent, Chrono-Log Corporation, Havertown, Pa.). ATP binds to luciferin-luciferase and generates light that is then amplified by a high-gain photomultiplier tube in the lumi aggregometer and is measured simultaneously with the optical change in light transmittance caused by platelet aggregation. In experiments in which lumi aggregometry was performed, 450 μL of PRP was transferred to cuvettes containing magnetic stir bars and allowed to pre-warm to 37° C. in the aggregometer wells for 3 minutes. […] Reactions were initiated by the addition of agonists and/or enzymes to warmed PRP and CHRONOLUME′ reagent and were monitored for light generation. […]

B1: NPP4: soluble recombinant extracellular domain of human NPP4 (NCBI AAH18054.1, residues 1-407 of SEQ ID NO:1), expressed in insect cells (protein, listed as Homo sapiens)
chain: MKLLVILLFSGLITGFRSDSSSSLPPKLLLVSFDGFRADYLKNYEFPHLQNFIKEGVLVEHVKNVFITKTFPNHYSIVTGLYEESHGIVANSMYDAVTKKHFSDSNDKDPFWWNEAVPIWVTNQLQENRSSAAAMWPGTDVPIHDTISSYFMNYNSSVSFEERLNNITMWLNNSNPPVTFATLYWEEPDASGHKYGPEDKENMSRVLKKIDDLIGDLVQRLKMLGLWENLNVIITSDHGMTQCSQDRLINLDSCIDHSYYTLIDLSPVAAILPKINRTEVYNKLKNCSPHMNVYLKEDIPNRFYYQHNDRIQPIILVADEGWTIVLNESSQKLGDHGYDNSLPSMHPFLAAHGPAFHKGYKHSTINIVDIYPMMCHILGLKPHPNNGTFGHTKCLLVDQWCINLPEA
With B1 the “time to granule release” value (100 nM NPP4 with 40 μM Ap3A) was about 1.5 min and the “platelet aggregation and dense granule (ATP) release, enzyme with Ap3A (qualitative)” value (100 nM enzyme with 40 μM Ap3A) was “ATP release and platelet aggregation were simultaneously seen; also recorded: strong platelet aggregation and dense granule release”.
